Experimental data: patent publication US7968091 (GENERAL HOSPITAL, dated 2011)

Molecular target: T1, human BMP-2 ligand (carrier-free, R & D Systems), used 125I-labeled and as cold competitor (human, UniProt P12643 283-396, iodinated with [125I] by the modified chloramine-T method (labeled form))
T1 construct: Bought recombinant ligand
Assay: DSS chemical crosslinking with 125I-BMP-2, Protein A pull-down, SDS-PAGE, autoradiography
Protocol: Ligand iodination and crosslinking. […] This mixture was incubated in the absence or presence of […] disuccinimidyl suberate (DSS, Sigma, St. Louis, Mo.) followed by incubated with Protein A Sepharose beads (Amersham) as previously described (J. L. Babitt et al., J. Biol. Chem., 2005, 280: 29820-29827). Beads were washed with phosphate buffered saline (PBS) and protein eluted by non-reducing Laemmli sample buffer (Bio-Rad). Eluted protein was separated by SDS-PAGE and analyzed by autoradiography.

T1 sequence (P12643 283-396 limits assumed): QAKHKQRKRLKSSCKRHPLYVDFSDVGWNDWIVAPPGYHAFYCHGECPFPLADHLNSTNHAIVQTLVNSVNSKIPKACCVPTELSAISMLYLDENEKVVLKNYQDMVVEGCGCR

- binding result: no binding (tested: 60 ng ALK5.Fc)
B1: ALK5.Fc (a TGF-β type I receptor, R & D Systems) (Fc fusion, UniProt P36897 34-125, looked up)
chain: LQCFCHLCTKDNFTCVTDGLCFVSVTETTDKVIHNSMCIAEIDLIPRDRPFVCAPSSKTGSVTTTYCCNQDHCNKIELPTTVKSSPGLGPVE
notes: Bought fusion protein, negative control; not shown: Fc part of the bought fusion protein; not described
